# Measurements from IntAct's records for PubMed 31515488.
# B1: Peroxisomal bifunctional enzyme (Homo sapiens), Q08426 (parent)
# chain: MAEYTRLHNALALIRLRNPPVNAISTTLLRDIKEGLQKAVIDHTIKAIVICGAEGKFSAGADIRGFSAPRTFGLTLGHVVDEIQRNEKPVVAAIQGMAFGGGLELALGCHYRIAHAEAQVGLPEVTLGLLPGARGTQLLPRLTGVPAALDLITSGRRILADEALKLGILDKVVNSDPVEEAIRFAQRVSDQPLESRRLCNKPIQSLPNMDSIFSEALLKMRRQHPGCLAQEACVRAVQAAVQYPYEVGIKKEEELFLYLLQSGQARALQYAFFAERKANKWSTPSGASWKTASARPVSSVGVVGLGTMGRGIVISFARARIPVIAVDSDKNQLATANKMITSVLEKEASKMQQSGHPWSGPKPRLTSSVKELGGVDLVIEAVFEEMSLKKQVFAELSAVCKPEAFLCTNTSALDVDEIASSTDRPHLVIGTHFFSPAHVMKLLEVIPSQYSSPTTIATVMNLSKKIKKIGVVVGNCFGFVGNRMLNPYYNQAYFLLEEGSKPEEVDQVLEEFGFKMGPFRVSDLAGLDVGWKSRKGQGLTGPTLLPGTPARKRGNRRYCPIPDVLCELGRFGQKTGKGWYQYDKPLGRIHKPDPWLSKFLSRYRKTHHIEPRTISQDEILERCLYSLINEAFRILGEGIAASPEHIDVVYLHGYGWPRHKGGPMFYASTVGLPTVLEKLQKYYRQNPDIPQLEPSDYLKKLASQGNPPLKEWQSLAGSPSSKL
# B2: Protein FAM9B (Homo sapiens), Q8IZU0 (parent)
# chain: MAAWGKKHAGKDPVRDECEERNRFTETREEDVTDEHGEREPFAETDEHTGANTKKPEDTAEDLTAKRKRMKMDKTCSKTKNKSKHALRKKQLKRQKRDYIHSLKLLNVLEEYITDEQKEEEEEEGEEEELIRIFQEQQKKWQQYRSVRRERLKEMKLLRDQFVKALEDFEDLCDRVFSDEDSELDN
# partner: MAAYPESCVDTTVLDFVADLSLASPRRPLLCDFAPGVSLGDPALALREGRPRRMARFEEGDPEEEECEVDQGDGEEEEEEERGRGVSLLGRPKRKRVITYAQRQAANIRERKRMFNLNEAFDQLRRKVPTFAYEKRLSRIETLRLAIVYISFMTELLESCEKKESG
# B3: Centrosomal protein POC5 (Homo sapiens), Q8NA72 (parent)
# chain: MSSDEEKYSLPVVQNDSSRGSSVSSNLQEEYEELLHYAIVTPNIEPCASQSSHPKGELVPDVRISTIHDILHSQGNNSEVRETAIEVGKGCDFHISSHSKTDESSPVLSPRKPSHPVMDFFSSHLLADSSSPATNSSHTDAHEILVSDFLVSDENLQKMENVLDLWSSGLKTNIISELSKWRLNFIDWHRMEMRKEKEKHAAHLKQLCNQINELKELQKTFEISIGRKDEVISSLSHAIGKQKEKIELMRTFFHWRIGHVRARQDVYEGKLADQYYQRTLLKKVWKVWRSVVQKQWKDVVERACQARAEEVCIQISNDYEAKVAMLSGALENAKAEIQRMQHEKEHFEDSMKKAFMRGVCALNLEAMTIFQNRNDAGIDSTNNKKEEYGPGVQGKEHSAHLDPSAPPMPLPVTSPLLPSPPAAVGGASATAVPSAASMTSTRAASASSVHVPVSALGAGSAATAASEEMYVPRVVTSAQQKAGRTITARITGRCDFASKNRISSSLAIMGVSPPMSSVVVEKHHPVTVQTIPQATAAKYPRTIHPESSTSASRSLGTRSAHTQSLTSVHSIKVVD
# partner: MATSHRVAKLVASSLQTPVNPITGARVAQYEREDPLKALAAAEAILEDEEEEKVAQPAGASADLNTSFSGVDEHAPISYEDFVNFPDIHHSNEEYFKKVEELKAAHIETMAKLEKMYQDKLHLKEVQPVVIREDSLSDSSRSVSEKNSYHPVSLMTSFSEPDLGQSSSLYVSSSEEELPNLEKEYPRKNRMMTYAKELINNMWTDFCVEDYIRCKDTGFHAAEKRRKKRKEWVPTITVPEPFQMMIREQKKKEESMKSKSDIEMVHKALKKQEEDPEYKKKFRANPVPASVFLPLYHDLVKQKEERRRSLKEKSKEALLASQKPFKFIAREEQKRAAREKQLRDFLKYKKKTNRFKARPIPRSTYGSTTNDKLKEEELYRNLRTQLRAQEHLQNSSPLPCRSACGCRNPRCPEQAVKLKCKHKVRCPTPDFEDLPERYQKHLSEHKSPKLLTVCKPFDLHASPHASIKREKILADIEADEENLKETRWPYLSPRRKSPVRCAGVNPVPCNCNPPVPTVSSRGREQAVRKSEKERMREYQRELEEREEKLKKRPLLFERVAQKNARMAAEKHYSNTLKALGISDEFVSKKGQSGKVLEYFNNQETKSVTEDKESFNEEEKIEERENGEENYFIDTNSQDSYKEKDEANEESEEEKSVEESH
# B4: PHD finger protein 1 (Homo sapiens), O43189 (parent)
# chain: MAQPPRLSRSGASSLWDPASPAPTSGPRPRLWEGQDVLARWTDGLLYLGTIKKVDSAREVCLVQFEDDSQFLVLWKDISPAALPGEELLCCVCRSETVVPGNRLVSCEKCRHAYHQDCHVPRAPAPGEGEGTSWVCRQCVFAIATKRGGALKKGPYARAMLGMKLSLPYGLKGLDWDAGHLSNRQQSYCYCGGPGEWNLKMLQCRSCLQWFHEACTQCLSKPLLYGDRFYEFECCVCRGGPEKVRRLQLRWVDVAHLVLYHLSVCCKKKYFDFDREILPFTSENWDSLLLGELSDTPKGERSSRLLSALNSHKDRFISGREIKKRKCLFGLHARMPPPVEPPTGDGALTSFPSGQGPGGGVSRPLGKRRRPEPEPLRRRQKGKVEELGPPSAVRNQPEPQEQRERAHLQRALQASVSPPSPSPNQSYQGSSGYNFRPTDARCLPSSPIRMFASFHPSASTAGTSGDSGPPDRSPLELHIGFPTDIPKSAPHSMTASSSSVSSPSPGLPRRSAPPSPLCRSLSPGTGGGVRGGVGYLSRGDPVRVLARRVRPDGSVQYLVEWGGGGIF
# B5: Nuclear RNA export factor 3 (Homo sapiens), Q9H4D5 (parent)
# chain: MSLPSGHTTGHTDQVVQRRARCWDIYQRRFSSRSEPVNPGMHSSSHQQQDGDAAMHGAHMDSPVRYTPYTISPYNRKGSFRKQDQTHVNMEREQKPPERRMEGNMPDGTLGSWFKITVPFGIKYNEKWLLNLIQNECSVPFVPVEFHYENMHASFFVENASIAYALKNVSGKIWDEDNEKISIFVNPAGIPHFVHRELKSEKVEQIKLAMNQQCDVSQEALDIQRLPFYPDMVNRDTKMASNPRKCMAASLDVHEENIPTVMSAGEMDKWKGIEPGEKCADRSPVCTTFSDTSSNINSILELFPKLLCLDGQQSPRATLCGTEAHKRLPTCKGSFFGSEMLKNLVLQFLQQYYLIYDSGDRQGLLSAYHDEACFSLSIPFNPEDSAPSSFCKFFKDSRNIKILKDPYLRGELLKHTKLDIVDSLSALPKTQHDLSSFLVDMWYQTEWMLCFSVNGVFKEVEGQSQGSVLAFTRTFIATPGSSSSLCIVNDKLFVRDTSHQGTQSALFTLVPTAFSSSVPAFSQEQQKMLPS
# partner: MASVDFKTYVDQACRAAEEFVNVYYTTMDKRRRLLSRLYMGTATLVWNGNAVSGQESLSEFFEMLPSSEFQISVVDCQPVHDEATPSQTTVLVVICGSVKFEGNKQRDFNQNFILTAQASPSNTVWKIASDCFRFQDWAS
# Variants of: B1
# Settings: with tpp2_human TPP2, P29144
row,Variant,effect of a mutation on the interaction
1,R556G,with no effect
2,I646T,disrupting interaction strength
3,S703F,with no effect
4,L715S,with no effect

# Variants of: B1
# Settings: with actb_human ACTB
row,Variant,effect of a mutation on the interaction
1,R556G,with no effect
2,I646T,disrupting interaction strength
3,S703F,with no effect
4,L715S,with no effect

# Variants of: B1
# Settings: with actg_human ACTG1, P63261
row,Variant,effect of a mutation on the interaction
1,R556G,with no effect
2,I646T,disrupting interaction strength
3,S703F,with no effect
4,L715S,with no effect

# Variants of: B1
# Settings: with tnip1_human TNIP1, Q15025
# Sequence of tnip1_human TNIP1, Q15025 (Q15025 whole entry): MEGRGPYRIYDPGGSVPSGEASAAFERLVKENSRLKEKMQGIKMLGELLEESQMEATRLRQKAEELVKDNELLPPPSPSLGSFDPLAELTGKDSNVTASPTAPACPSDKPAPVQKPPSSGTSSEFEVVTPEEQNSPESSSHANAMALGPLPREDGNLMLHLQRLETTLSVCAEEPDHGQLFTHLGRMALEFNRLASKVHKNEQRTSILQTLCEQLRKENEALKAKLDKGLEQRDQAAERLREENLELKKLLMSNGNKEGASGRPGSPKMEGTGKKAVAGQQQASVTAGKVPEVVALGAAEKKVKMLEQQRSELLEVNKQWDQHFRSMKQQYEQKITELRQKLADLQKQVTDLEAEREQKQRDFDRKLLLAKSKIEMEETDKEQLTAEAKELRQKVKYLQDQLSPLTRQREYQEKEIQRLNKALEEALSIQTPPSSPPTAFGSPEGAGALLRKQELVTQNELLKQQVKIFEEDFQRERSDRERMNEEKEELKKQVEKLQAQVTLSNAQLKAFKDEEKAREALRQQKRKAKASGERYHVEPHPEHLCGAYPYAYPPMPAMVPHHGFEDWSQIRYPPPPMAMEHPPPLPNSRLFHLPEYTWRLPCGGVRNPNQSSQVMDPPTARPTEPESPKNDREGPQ
row,Variant,effect of a mutation on the interaction
1,I646T,disrupting interaction strength
2,S703F,with no effect
3,L715S,with no effect

# Variants of: B1
# Settings: with fund1_human FUNDC1, Q8IVP5
# Sequence of fund1_human FUNDC1, Q8IVP5 (Q8IVP5 whole entry): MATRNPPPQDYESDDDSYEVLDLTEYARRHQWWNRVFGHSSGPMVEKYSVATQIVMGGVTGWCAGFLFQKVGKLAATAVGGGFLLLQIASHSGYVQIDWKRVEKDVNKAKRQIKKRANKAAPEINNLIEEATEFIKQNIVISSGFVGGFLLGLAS
row,Variant,effect of a mutation on the interaction
1,Q685K,disrupting interaction strength

# Variants of: B1
# Settings: with tri41_human TRIM41, Q8WV44
row,Variant,effect of a mutation on the interaction
1,Q685K,with no effect

# Variants of: B1
# Settings: with CCDC102B
row,Variant,effect of a mutation on the interaction
1,Q685K,with no effect

# Variants of: B2
# Settings: with fer3l_human FERD3L
row,Variant,effect of a mutation on the interaction
1,R23H,with no effect

# Variants of: B3
# Settings: with FAM161A
row,Variant,effect of a mutation on the interaction
1,H36R,with no effect
2,I175M,with no effect

# Variants of: B4
# Settings: with dhb14_human HSD17B14, Q9BPX1
# Sequence of dhb14_human HSD17B14, Q9BPX1 (Q9BPX1 whole entry): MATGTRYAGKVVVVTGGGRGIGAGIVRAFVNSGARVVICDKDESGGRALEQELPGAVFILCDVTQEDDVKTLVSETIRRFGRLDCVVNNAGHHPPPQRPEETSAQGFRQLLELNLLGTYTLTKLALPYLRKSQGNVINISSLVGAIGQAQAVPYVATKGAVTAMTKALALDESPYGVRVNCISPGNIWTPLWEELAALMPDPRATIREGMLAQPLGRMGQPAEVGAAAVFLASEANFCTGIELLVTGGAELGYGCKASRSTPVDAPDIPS
row,Variant,effect of a mutation on the interaction
1,S14L,with no effect

# Variants of: B4
# Settings: with tri23_human TRIM23, P36406
# Sequence of tri23_human TRIM23, P36406 (P36406 whole entry): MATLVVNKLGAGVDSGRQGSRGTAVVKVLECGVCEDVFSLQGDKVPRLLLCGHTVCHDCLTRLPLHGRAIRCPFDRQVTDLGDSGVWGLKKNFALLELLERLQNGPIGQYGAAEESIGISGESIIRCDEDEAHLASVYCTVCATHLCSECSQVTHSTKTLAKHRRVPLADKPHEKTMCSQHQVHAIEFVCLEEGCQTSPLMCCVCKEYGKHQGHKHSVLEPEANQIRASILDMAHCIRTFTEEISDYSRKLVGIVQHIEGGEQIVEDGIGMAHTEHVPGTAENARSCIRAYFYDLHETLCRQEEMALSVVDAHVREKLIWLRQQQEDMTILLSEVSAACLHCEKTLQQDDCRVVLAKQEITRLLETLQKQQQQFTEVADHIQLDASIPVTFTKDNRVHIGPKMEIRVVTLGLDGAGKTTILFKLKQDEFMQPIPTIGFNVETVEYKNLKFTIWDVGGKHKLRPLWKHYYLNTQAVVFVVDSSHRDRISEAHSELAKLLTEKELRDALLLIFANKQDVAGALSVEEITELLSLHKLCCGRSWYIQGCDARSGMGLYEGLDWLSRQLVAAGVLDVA
row,Variant,effect of a mutation on the interaction
1,S14L,with no effect

# Variants of: B4
# Settings: with pdli7_human PDLIM7, Q9NR12
# Sequence of pdli7_human PDLIM7, Q9NR12 (Q9NR12 whole entry): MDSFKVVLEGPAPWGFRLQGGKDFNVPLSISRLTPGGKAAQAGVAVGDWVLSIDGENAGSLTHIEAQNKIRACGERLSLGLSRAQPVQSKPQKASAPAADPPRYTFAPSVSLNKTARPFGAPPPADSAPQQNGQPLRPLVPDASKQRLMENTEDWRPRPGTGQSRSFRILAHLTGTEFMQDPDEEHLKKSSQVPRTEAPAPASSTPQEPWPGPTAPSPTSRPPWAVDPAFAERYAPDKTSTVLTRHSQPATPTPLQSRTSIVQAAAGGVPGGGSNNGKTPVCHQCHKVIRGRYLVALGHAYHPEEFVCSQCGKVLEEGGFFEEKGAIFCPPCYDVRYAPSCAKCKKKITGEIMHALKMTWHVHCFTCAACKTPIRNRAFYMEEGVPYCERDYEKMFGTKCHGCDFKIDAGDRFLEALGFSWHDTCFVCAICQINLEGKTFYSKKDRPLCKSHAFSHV
row,Variant,effect of a mutation on the interaction
1,S14L,with no effect

# Variants of: B5
# Settings: with nxt1_human NXT1, Q9UKK6
row,Variant,effect of a mutation on the interaction
1,R409W,disrupting interaction strength
